Measurements from PMC8614738 (2021).

Target: oligomeric EF-Tu (^OligoEF-Tu), unfolded (UniProt P0CE47 1-394)
Assay: ITC; 20 °C

oligomeric EF-Tu (^OligoEF-Tu), unfolded, sequence (P0CE47 whole entry): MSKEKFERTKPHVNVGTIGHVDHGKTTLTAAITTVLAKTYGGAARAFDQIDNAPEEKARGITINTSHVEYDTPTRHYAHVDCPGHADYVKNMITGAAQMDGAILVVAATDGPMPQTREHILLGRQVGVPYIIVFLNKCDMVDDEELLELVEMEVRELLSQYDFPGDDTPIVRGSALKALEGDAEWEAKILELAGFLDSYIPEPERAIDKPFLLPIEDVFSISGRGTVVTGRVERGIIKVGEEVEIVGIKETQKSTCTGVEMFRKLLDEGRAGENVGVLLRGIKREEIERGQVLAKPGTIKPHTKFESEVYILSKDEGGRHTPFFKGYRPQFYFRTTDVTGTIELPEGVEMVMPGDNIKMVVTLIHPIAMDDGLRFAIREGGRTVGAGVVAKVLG

Kd: 1860 nM
B1: trigger factor (TF) (natural protein)
chain: MQVSVETTQGLGRRVTITIAADSIETAVKSELVNVAKKVRIDGFRKGKVPMNIVAQRYGASVRQDVLGDLMSRNFIDAIIKEKINPAGAPTYVPGEYKLGEDFTYSVEFEVYPEVELQGLEAIEVEKPIVEVTDADVDGMLDTLRKQQATWKEKDGAVEAEDRVTIDFTGSVDGEEFEGGKASDFVLAMGQGRMIPGFEDGIKGHKAGEEFTIDVTFPEEYHAENLKGKAAKFAINLKKVEERELPELTAEFIKRFGVEDGSVEGLRAEVRKNMERELKSAIRNRVKSQAIEGLVKANDIDVPAALIDSEIDVLRRQAAQRFGGNEKQALELPRELFEEQAKRRVVVGLLLGEVIRTNELKADEERVKGLIEEMASAYEDPKEVIEFYSKNKELMDNMRNVALEEQAVEAVLAKAKVTEKETTFNELMNQQA
